The assay deals with Bacillus pumilus bilirubin oxidase (Bacillus pumilus). The assay is described as follows: crystal structure; X-ray, 3.5 Å; crystals grown at 20 °C in 0.1 M sodium citrate pH 5.5, 20% PEG 3000; dimer interface analysed with PDBePISA.

“Bacillus pumilus bilirubin oxidase (enzyme)”: the stoichiometry N (as a rule, the number of molecules, sites or subunits per partner or assembly) came to 2.

Values taken from publication PMC9138216.
